Square brackets hold non-standard residues; d marks the D form. Nle = CCCC[C@H](N)C(=O)O
Legend:
hMC4-R = molecular target: T1, hMC4-R (human, UniProt P32245 1-332); test: assay not described for this value
T1 construct: whole, on cells; Membrane preparation; also called MCR-4

[1] = molecular target: T2, MC1-R of B-16 mouse melanoma cells (mouse, UniProt Q01727 1-315); test: assay not described for this value
T2 construct: whole, on cells; Membrane preparation; also called MCR-1
T2 sequence (Q01727 whole entry): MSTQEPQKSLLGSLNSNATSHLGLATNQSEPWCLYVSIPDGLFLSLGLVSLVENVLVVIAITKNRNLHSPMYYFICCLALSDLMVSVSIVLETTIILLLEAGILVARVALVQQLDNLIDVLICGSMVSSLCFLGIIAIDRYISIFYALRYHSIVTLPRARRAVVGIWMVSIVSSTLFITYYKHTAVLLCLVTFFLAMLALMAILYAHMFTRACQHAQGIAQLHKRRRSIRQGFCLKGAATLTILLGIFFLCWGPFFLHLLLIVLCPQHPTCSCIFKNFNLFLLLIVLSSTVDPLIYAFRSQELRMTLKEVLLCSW

T1 sequence (P32245 whole entry): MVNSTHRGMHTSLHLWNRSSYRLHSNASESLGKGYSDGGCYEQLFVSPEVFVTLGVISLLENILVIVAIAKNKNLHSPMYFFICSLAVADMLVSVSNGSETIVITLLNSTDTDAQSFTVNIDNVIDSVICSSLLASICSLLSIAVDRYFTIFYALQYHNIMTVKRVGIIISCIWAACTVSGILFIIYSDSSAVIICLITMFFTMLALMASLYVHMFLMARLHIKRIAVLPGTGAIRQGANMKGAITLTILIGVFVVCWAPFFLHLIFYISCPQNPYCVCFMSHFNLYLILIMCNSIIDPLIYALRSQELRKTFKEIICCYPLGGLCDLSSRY

B1: Ac-Nle-Ala-His-D-Phe-Arg-Trp-NH2 (peptide)
peptide: Ac-[Nle]AH[dF]RW-NH2
notes: Linear parent peptide, not complexed to a metal; also called parent melanocortin peptide
hMC4-R
  Ki: 2000 nM
[1]
  Ki: 100 nM

From EP1379283B1 (Palatin Technologies, Inc., dated 2002)
